Test results taken from patent US20240294593A1 (Genentech, published 2024).

B1: H1.4_L1 (antibody, human IgG1, kappa, V domains shown)
VH: EVQLVESGGGLVQPGGSLRLSCAASGFTFGSFGMHWVRQAPGKGLEWVSYISSGSSIIYYADSVKGRFTISRDNAKNSLYLQMNSLRAEDTAVYYCARGGRLVWSPDYWGQGTLVTVSS
VL: DIVMTQSPDSLAVSLGERATINCKSSQSLLNSGNQKNYLTWYQQKPGQPPKLLIYWASTRESGVPDRFTGSGSGTDFTLTISSLQAEDVAVYYCQNDYSYPFTFGSGTKLEIKR
notes: also called VH-S30G; Kabat 30G; copies: 2 + 2
B2: H1.22_L1 (antibody, human IgG1, kappa, V domains shown)
VH: EVQLVESGGGLVQPGGSLRLSCAASGFTFSSHGMHWVRQAPGKGLEWVSYISSGSSIIYYADSVKGRFTISRDNAKNSLYLQMNSLRAEDTAVYYCARGGRLVWSPDYWGQGTLVTVSS
VL: DIVMTQSPDSLAVSLGERATINCKSSQSLLNSGNQKNYLTWYQQKPGQPPKLLIYWASTRESGVPDRFTGSGSGTDFTLTISSLQAEDVAVYYCQNDYSYPFTFGSGTKLEIKR
notes: also called VH-F34H; Kabat 32H; copies: 2 + 2
B3: H1.15_L1 (antibody, human IgG1, kappa, V domains shown)
VH: EVQLVESGGGLVQPGGSLRLSCAASGFTFSDFGMHWVRQAPGKGLEWVSYISSGSSIIYYADSVKGRFTISRDNAKNSLYLQMNSLRAEDTAVYYCARGGRLVWSPDYWGQGTLVTVSS
VL: DIVMTQSPDSLAVSLGERATINCKSSQSLLNSGNQKNYLTWYQQKPGQPPKLLIYWASTRESGVPDRFTGSGSGTDFTLTISSLQAEDVAVYYCQNDYSYPFTFGSGTKLEIKR
notes: also called VH-S31D; Kabat 31D; copies: 2 + 2
B4: H1.20_L1 (antibody, human IgG1, kappa, V domains shown)
VH: EVQLVESGGGLVQPGGSLRLSCAASGFTFSSWGMHWVRQAPGKGLEWVSYISSGSSIIYYADSVKGRFTISRDNAKNSLYLQMNSLRAEDTAVYYCARGGRLVWSPDYWGQGTLVTVSS
VL: DIVMTQSPDSLAVSLGERATINCKSSQSLLNSGNQKNYLTWYQQKPGQPPKLLIYWASTRESGVPDRFTGSGSGTDFTLTISSLQAEDVAVYYCQNDYSYPFTFGSGTKLEIKR
notes: also called VH-F34W; Kabat 32W; copies: 2 + 2
B5: H1.5_L1 (antibody, human IgG1, kappa, V domains shown)
VH: EVQLVESGGGLVQPGGSLRLSCAASGFTFVSFGMHWVRQAPGKGLEWVSYISSGSSIIYYADSVKGRFTISRDNAKNSLYLQMNSLRAEDTAVYYCARGGRLVWSPDYWGQGTLVTVSS
VL: DIVMTQSPDSLAVSLGERATINCKSSQSLLNSGNQKNYLTWYQQKPGQPPKLLIYWASTRESGVPDRFTGSGSGTDFTLTISSLQAEDVAVYYCQNDYSYPFTFGSGTKLEIKR
notes: also called VH-S30V; Kabat 30V; copies: 2 + 2
B6: H1.8_L1 (antibody, human IgG1, kappa, V domains shown)
VH: EVQLVESGGGLVQPGGSLRLSCAASGFTFYSFGMHWVRQAPGKGLEWVSYISSGSSIIYYADSVKGRFTISRDNAKNSLYLQMNSLRAEDTAVYYCARGGRLVWSPDYWGQGTLVTVSS
VL: DIVMTQSPDSLAVSLGERATINCKSSQSLLNSGNQKNYLTWYQQKPGQPPKLLIYWASTRESGVPDRFTGSGSGTDFTLTISSLQAEDVAVYYCQNDYSYPFTFGSGTKLEIKR
notes: also called VH-S30Y; Kabat 30Y
B7: H1.10_L1 (antibody, human IgG1, kappa, V domains shown)
VH: EVQLVESGGGLVQPGGSLRLSCAASGFTFSAFGMHWVRQAPGKGLEWVSYISSGSSIIYYADSVKGRFTISRDNAKNSLYLQMNSLRAEDTAVYYCARGGRLVWSPDYWGQGTLVTVSS
VL: DIVMTQSPDSLAVSLGERATINCKSSQSLLNSGNQKNYLTWYQQKPGQPPKLLIYWASTRESGVPDRFTGSGSGTDFTLTISSLQAEDVAVYYCQNDYSYPFTFGSGTKLEIKR
notes: also called VH-S31A; Kabat 31A; copies: 2 + 2
B8: H1.23_L1 (antibody, human IgG1, kappa, V domains shown)
VH: EVQLVESGGGLVQPGGSLRLSCAASGFTFSSQGMHWVRQAPGKGLEWVSYISSGSSIIYYADSVKGRFTISRDNAKNSLYLQMNSLRAEDTAVYYCARGGRLVWSPDYWGQGTLVTVSS
VL: DIVMTQSPDSLAVSLGERATINCKSSQSLLNSGNQKNYLTWYQQKPGQPPKLLIYWASTRESGVPDRFTGSGSGTDFTLTISSLQAEDVAVYYCQNDYSYPFTFGSGTKLEIKR
notes: also called VH-F34Q; Kabat 32Q
B9: H1.17_L1 (antibody, human IgG1, kappa, V domains shown)
VH: EVQLVESGGGLVQPGGSLRLSCAASGFTFSYFGMHWVRQAPGKGLEWVSYISSGSSIIYYADSVKGRFTISRDNAKNSLYLQMNSLRAEDTAVYYCARGGRLVWSPDYWGQGTLVTVSS
VL: DIVMTQSPDSLAVSLGERATINCKSSQSLLNSGNQKNYLTWYQQKPGQPPKLLIYWASTRESGVPDRFTGSGSGTDFTLTISSLQAEDVAVYYCQNDYSYPFTFGSGTKLEIKR
notes: also called VH-S31Y; Kabat 31Y; copies: 2 + 2
B10: H1.18_L1 (antibody, human IgG1, kappa, V domains shown)
VH: EVQLVESGGGLVQPGGSLRLSCAASGFTFSSYGMHWVRQAPGKGLEWVSYISSGSSIIYYADSVKGRFTISRDNAKNSLYLQMNSLRAEDTAVYYCARGGRLVWSPDYWGQGTLVTVSS
VL: DIVMTQSPDSLAVSLGERATINCKSSQSLLNSGNQKNYLTWYQQKPGQPPKLLIYWASTRESGVPDRFTGSGSGTDFTLTISSLQAEDVAVYYCQNDYSYPFTFGSGTKLEIKR
notes: also called VH-F34Y; Kabat 32Y; copies: 2 + 2
B11: H1.6_L1 (antibody, human IgG1, kappa, V domains shown)
VH: EVQLVESGGGLVQPGGSLRLSCAASGFTFHSFGMHWVRQAPGKGLEWVSYISSGSSIIYYADSVKGRFTISRDNAKNSLYLQMNSLRAEDTAVYYCARGGRLVWSPDYWGQGTLVTVSS
VL: DIVMTQSPDSLAVSLGERATINCKSSQSLLNSGNQKNYLTWYQQKPGQPPKLLIYWASTRESGVPDRFTGSGSGTDFTLTISSLQAEDVAVYYCQNDYSYPFTFGSGTKLEIKR
notes: also called VH-S30H; Kabat 30H; copies: 2 + 2
B12: H1.11_L1 (antibody, human IgG1, kappa, V domains shown)
VH: EVQLVESGGGLVQPGGSLRLSCAASGFTFSQFGMHWVRQAPGKGLEWVSYISSGSSIIYYADSVKGRFTISRDNAKNSLYLQMNSLRAEDTAVYYCARGGRLVWSPDYWGQGTLVTVSS
VL: DIVMTQSPDSLAVSLGERATINCKSSQSLLNSGNQKNYLTWYQQKPGQPPKLLIYWASTRESGVPDRFTGSGSGTDFTLTISSLQAEDVAVYYCQNDYSYPFTFGSGTKLEIKR
notes: also called VH-S31Q; Kabat 31Q; copies: 2 + 2
B13: H1.16_L1 (antibody, human IgG1, kappa, V domains shown)
VH: EVQLVESGGGLVQPGGSLRLSCAASGFTFSKFGMHWVRQAPGKGLEWVSYISSGSSIIYYADSVKGRFTISRDNAKNSLYLQMNSLRAEDTAVYYCARGGRLVWSPDYWGQGTLVTVSS
VL: DIVMTQSPDSLAVSLGERATINCKSSQSLLNSGNQKNYLTWYQQKPGQPPKLLIYWASTRESGVPDRFTGSGSGTDFTLTISSLQAEDVAVYYCQNDYSYPFTFGSGTKLEIKR
notes: also called VH-S31K; Kabat 31K; copies: 2 + 2
B14: H1.9_L1 (antibody, human IgG1, kappa, V domains shown)
VH: EVQLVESGGGLVQPGGSLRLSCAASGFTFSTFGMHWVRQAPGKGLEWVSYISSGSSIIYYADSVKGRFTISRDNAKNSLYLQMNSLRAEDTAVYYCARGGRLVWSPDYWGQGTLVTVSS
VL: DIVMTQSPDSLAVSLGERATINCKSSQSLLNSGNQKNYLTWYQQKPGQPPKLLIYWASTRESGVPDRFTGSGSGTDFTLTISSLQAEDVAVYYCQNDYSYPFTFGSGTKLEIKR
notes: also called VH-S31T; Kabat 31T; copies: 2 + 2
B15: H1.7_L1 (antibody, human IgG1, kappa, V domains shown)
VH: EVQLVESGGGLVQPGGSLRLSCAASGFTFKSFGMHWVRQAPGKGLEWVSYISSGSSIIYYADSVKGRFTISRDNAKNSLYLQMNSLRAEDTAVYYCARGGRLVWSPDYWGQGTLVTVSS
VL: DIVMTQSPDSLAVSLGERATINCKSSQSLLNSGNQKNYLTWYQQKPGQPPKLLIYWASTRESGVPDRFTGSGSGTDFTLTISSLQAEDVAVYYCQNDYSYPFTFGSGTKLEIKR
notes: also called VH-S30K; Kabat 30K; copies: 2 + 2
B16: H1.14_L1 (antibody, human IgG1, kappa, V domains shown)
VH: EVQLVESGGGLVQPGGSLRLSCAASGFTFSHFGMHWVRQAPGKGLEWVSYISSGSSIIYYADSVKGRFTISRDNAKNSLYLQMNSLRAEDTAVYYCARGGRLVWSPDYWGQGTLVTVSS
VL: DIVMTQSPDSLAVSLGERATINCKSSQSLLNSGNQKNYLTWYQQKPGQPPKLLIYWASTRESGVPDRFTGSGSGTDFTLTISSLQAEDVAVYYCQNDYSYPFTFGSGTKLEIKR
notes: also called VH-S31H; Kabat 31H; copies: 2 + 2
B17: H1.13_L1 (antibody, human IgG1, kappa, V domains shown)
VH: EVQLVESGGGLVQPGGSLRLSCAASGFTFSVFGMHWVRQAPGKGLEWVSYISSGSSIIYYADSVKGRFTISRDNAKNSLYLQMNSLRAEDTAVYYCARGGRLVWSPDYWGQGTLVTVSS
VL: DIVMTQSPDSLAVSLGERATINCKSSQSLLNSGNQKNYLTWYQQKPGQPPKLLIYWASTRESGVPDRFTGSGSGTDFTLTISSLQAEDVAVYYCQNDYSYPFTFGSGTKLEIKR
notes: also called VH-S31V; Kabat 31V; copies: 2 + 2
B18: H1.24_L1 (antibody, human IgG1, kappa, V domains shown)
VH: EVQLVESGGGLVQPGGSLRLSCAASGFTFSSSGMHWVRQAPGKGLEWVSYISSGSSIIYYADSVKGRFTISRDNAKNSLYLQMNSLRAEDTAVYYCARGGRLVWSPDYWGQGTLVTVSS
VL: DIVMTQSPDSLAVSLGERATINCKSSQSLLNSGNQKNYLTWYQQKPGQPPKLLIYWASTRESGVPDRFTGSGSGTDFTLTISSLQAEDVAVYYCQNDYSYPFTFGSGTKLEIKR
notes: also called VH-F34S; Kabat 32S; copies: 2 + 2
B19: H1.21_L1 (antibody, human IgG1, kappa, V domains shown)
VH: EVQLVESGGGLVQPGGSLRLSCAASGFTFSSIGMHWVRQAPGKGLEWVSYISSGSSIIYYADSVKGRFTISRDNAKNSLYLQMNSLRAEDTAVYYCARGGRLVWSPDYWGQGTLVTVSS
VL: DIVMTQSPDSLAVSLGERATINCKSSQSLLNSGNQKNYLTWYQQKPGQPPKLLIYWASTRESGVPDRFTGSGSGTDFTLTISSLQAEDVAVYYCQNDYSYPFTFGSGTKLEIKR
notes: also called VH-F34I; Kabat 32I; copies: 2 + 2
B20: H1.12_L1 (antibody, human IgG1, kappa, V domains shown)
VH: EVQLVESGGGLVQPGGSLRLSCAASGFTFSGFGMHWVRQAPGKGLEWVSYISSGSSIIYYADSVKGRFTISRDNAKNSLYLQMNSLRAEDTAVYYCARGGRLVWSPDYWGQGTLVTVSS
VL: DIVMTQSPDSLAVSLGERATINCKSSQSLLNSGNQKNYLTWYQQKPGQPPKLLIYWASTRESGVPDRFTGSGSGTDFTLTISSLQAEDVAVYYCQNDYSYPFTFGSGTKLEIKR
notes: also called VH-S31G; Kabat 31G; copies: 2 + 2

These binders were tested against T1, human PD-1-His (human, UniProt Q15116 25-167, limits assumed) (assay: Octet).
T1 construct: Antigen of the Octet assays; not shown: His tag
T1 sequence (Q15116 25-167 limits assumed): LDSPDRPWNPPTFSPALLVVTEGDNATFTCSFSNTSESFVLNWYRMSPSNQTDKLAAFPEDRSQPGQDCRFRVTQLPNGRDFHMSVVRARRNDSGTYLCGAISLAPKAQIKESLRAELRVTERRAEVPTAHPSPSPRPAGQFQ
With B1 the Kd was 34 nM, the koff was 0.00422 s⁻¹ and the kon was 124000 M⁻¹ s⁻¹. B2 showed a Kd of 34 nM, a koff of 0.00358 s⁻¹ and a kon of 105000 M⁻¹ s⁻¹. B3 was tested, and the Kd was 40 nM, the koff was 0.00557 s⁻¹ and the kon was 139000 M⁻¹ s⁻¹. For B4, the Kd was 162 nM, the koff was 0.0204 s⁻¹ and the kon was 126000 M⁻¹ s⁻¹. Binder B5 has a Kd of 37.4 nM, a koff of 0.00475 s⁻¹ and a kon of 127000 M⁻¹ s⁻¹. B6 gave a Kd of 51.3 nM, a koff of 0.00534 s⁻¹ and a kon of 104000 M⁻¹ s⁻¹. For B7, the Kd was 36.9 nM, the koff was 0.00425 s⁻¹ and the kon was 115000 M⁻¹ s⁻¹. B8 was tested, and the Kd was 73.4 nM, the koff was 0.00863 s⁻¹ and the kon was 118000 M⁻¹ s⁻¹. B9 was tested, and the Kd was 50.4 nM, the koff was 0.00534 s⁻¹ and the kon was 106000 M⁻¹ s⁻¹. B10 showed a Kd of 47.9 nM, a koff of 0.00597 s⁻¹ and a kon of 125000 M⁻¹ s⁻¹. Binder B11 has a Kd of 48.5 nM, a koff of 0.00529 s⁻¹ and a kon of 109000 M⁻¹ s⁻¹. Binder B12 has a Kd of 36.8 nM, a koff of 0.00454 s⁻¹ and a kon of 123000 M⁻¹ s⁻¹. For B13, the Kd was 47.1 nM, the koff was 0.00514 s⁻¹ and the kon was 109000 M⁻¹ s⁻¹. With B14 the Kd was 46.9 nM, the koff was 0.00567 s⁻¹ and the kon was 121000 M⁻¹ s⁻¹. For B15, the Kd was 52.5 nM, the koff was 0.00545 s⁻¹ and the kon was 104000 M⁻¹ s⁻¹. B16 showed a Kd of 45.8 nM, a koff of 0.00546 s⁻¹ and a kon of 119000 M⁻¹ s⁻¹. B17 showed a Kd of 50.2 nM, a koff of 0.00634 s⁻¹ and a kon of 126000 M⁻¹ s⁻¹. Work on B18 yielded a Kd of 54.9 nM, a koff of 0.00688 s⁻¹ and a kon of 125000 M⁻¹ s⁻¹. B19 showed a Kd of 27.2 nM, a koff of 0.00371 s⁻¹ and a kon of 137000 M⁻¹ s⁻¹. B20 showed a Kd of 44.2 nM, a koff of 0.00537 s⁻¹ and a kon of 122000 M⁻¹ s⁻¹.
